Experimental data: patent US20090156485A1
Blank lines part the entries; values can stand above or below the binder they belong to.

What was measured:
[1] = target: human skin (skin keratin) (human); assay: quantitative skin binding test on human keratinocytes, after 10% strength SDS treatment
[2] = target: human skin (skin keratin) (human); assay: quantitative skin binding test on human keratinocytes in microtiter plates, anti-His antibody, TMB
[3] = target: human hair (hair keratin) (human); assay: quantitative hair binding test, after 10% strength SDS treatment
[4] = target: human hair (hair keratin) (human); assay: quantitative hair binding test, anti-polyHis peroxidase conjugate, TMB

Absorption at 405 nm (A405 nm (standardized to the surface)) [1]: 0.185 | Absorption at 405 nm (A405 nm (standardized to the surface)) [2]: 0.93
B1: KBD-B (keratin-binding domain B of human desmoplakin, SEQ ID No.: 166) (protein)
chain: MRGSHHHHHHGSACELEPHTGLLLLSVQKRSMSFQGIRQPVTVTELVDSGILRPSTVNELESGQISYDEVGERIKDFLQGSSCIAGIYNETTKQKLGIYEAMKIGLVRPGTALELLEAQAATGFIVDPVSNLRLPVEEAYKRGLVGIEFKEKLLSAERAVTGYNDPETGNIISLFQAMNKELIEKGHGIRLLEAQIATGGIIDPKESHRLPVDIAYKRGYFNEELSEILSDPSDDTKGFFDPNTEENLTYLQLKERCIKDEETGLCLLPLKEKKKQVQTSQKNTLRKRRVVIVDPETNKEMSVQEGVDLQPSLIS

Absorption at 405 nm (A405 nm (standardized to the surface)) [3]: 0.62 | Absorption at 405 nm (A405 nm (standardized to the surface)) [4]: 0.88 | Absorption at 405 nm (A405 nm (standardized to the surface)) [1]: 3.15 | Absorption at 405 nm (A405 nm (standardized to the surface)) [2]: 3.69
B2: KBD-D (keratin-binding domain of human plakophilin, SEQ ID No.: 168) (protein)
chain: MRGSHHHHHHGSACELGTMNHSPLKTALAYECFQDQDNSTLALPSDQKMKTGTSGRQRVQEQVMMTVKRQKSKSSQSSTLSHSNRGSMYDGLADNYNYGTTSRSSYYSKFQAGNGSWGYPIYNGTLKREPDNRRFSSYSQMENWSRHYPRGSCNTTGAGSDICFMQKIKASRSEPDLYCDPRGTLRKGTLGSKGQKTTQNRYSFYSTCSGQKAIKKCPVRPPSCASKQDPVYIPPISCNKDLSFGHSRASSKICSEDIECSGLTIPKAVQYLSSQDEKYQAIGAYYIQHTCFQDESAKQQVYQLGGICKLVDLLRSPNQNVQQAAAGALRNLVFRSTTNKLETRRQNGIREAVSLLRRTGNAEIQKQLTGLLWNLSSTDELKEELIADALPVLADRVIIPFSGWCDGNSNMSREVVDPEVFFNATGCLRNLSSADAGRQTMRNYSGLIDSLMAYVQNCVAASRCDDKSVENCMCVLHNLSYRLDAEVPTRYRQLEYNARNAYTEKSSTGCFSNKSDKMMNNNYDCPLPEEETNPKGSGWLYHSDAIRTYLNLMGKSKKDATLEACAGALQNLTASKGLMSSGMSQLIGLKEKGLPQIARLLQSGNSDVVRSGASLLSNMSRHPLLHRVMGNQVFPEVTRLLTSHTGNTSNSEDILSSACYTVRNLMASQPQLAKQYFSSSMLNNIINLCRSSASPKAAEAARLLLSDMWSSKELQGVLRQQGFDRNMLGTLAGANSLRNFTSRF
